Experimental data reported in the nanobody polyreactivity screen of Harvey et al. (2022).

Test: yeast display, Sf9 membrane polyspecificity reagent, FACS + sequencing; frameworks hold sequencing errors
Summary of the method: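 A synthetic nanobody library was expressed on Saccharomyces cerevisiae BJ5465 by galactose induction for 36–48 hours. The library was stained for 1 hour at 4 °C with 10% biotinylated, detergent-solubilized Sf9 membrane reagent and enriched with streptavidin microbeads before FACS. Low and high (top ~1%) gates were set on anti-HA fluorescence for expression and streptavidin fluorescence for reagent binding, and each polyreactivity label reflects the gate of origin.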

| Sequence | polyreactivity (PSR sort gate) |
| --- | --- |
| QVQLVESGGGLVQAGGSLRLSCAASGTFQVNAMGWYIQAPGKERELVAAINSNGGSTYYADSVKGRFTISRDNAKNTVYLQMNSLKPEDTAVYYCAAVYQRRRSYYWGQGTQVTVSS | high polyreactivity |
| QVQLVESGGGLVQAGGSLRLSCAASGTFRVYAMGWYRQAPGKERELVAAISRSGTSTYYSDSVKGRFTISRDNAKNTVYLQMNSLKPEDTAVYYCNDVVRGQYDWGQGTQVTVSS | high polyreactivity |
| QVQLVESGGGLVQAGGSLRLSCAASGTFSPYAIGWYRQAPGKERELVAVITSNTGRTYADSVKGRFTISRDNAKNTVYLQMNSLKPEDTAVYYCAARSTYRHWYRTGSRFDYWGQGTQVTVSS | low polyreactivity |
| QVQLVESGGGLVQAGGSLRLSCAASGTFVTYMGWYRQAPGKERELVAAIRNGGSTNYADSVKGRFTISRDNAKNTVYLQMNSLKPEDTAVYYCAADRAGSIMNYWGQGTQVTVSS | low polyreactivity |
| QVQLVESGGGLVQAGGSLRLSCAASGTFVTYMGWYRQSPGKEREMVAAIRNGGSTNYADSVKGRFTISRDNAKNTVYLQMNSLKPEDTAVYYCAARVTYSRGYRGGSRTKYDYWGQGTQVTVSS | low polyreactivity |
| QVQLVESGGGLVQAGGSLRLSCAASGTFWWYAMGWYRQAPGKERELVASINRGGSTYYADSVKGRFTISRDNANNTVYLQMNSLKPEDTAVYYCNAGWIGRLTPYRRATYNYWGQGTQVTVSS | high polyreactivity |
| QVQLVESGGGLVQAGGSLRLSCAASGTFYRNAMGWYRQAPGKERELVAAISSGSNTDYADSVKGRFTISRDNAKNTVYLQMNSLKPEDTAVYYCNADRGDLYELRGSGYLDGYWGQGTQVTVSS | low polyreactivity |
| QVQLVESGGGLVQAGGSLRLSCAASGTFYRYAMGWYRQAPGKERELVAAIDKTGDTTYYADSVKGRFTISRDNAKNTVYLQMNSLKPEDTAVYYCAATGYPRFGYWGQGTQVTVSS | high polyreactivity |
| QVQLVESGGGLVQAGGSLRLSCAASGTFYTYAMGWYRQAPGKERELVAAINGGGRTYYADSVKGRFTISRDNAKNTVYLQMNSLKPEDTAVYYCAARPRWSPSKYDYWGQGTQVTVSS | high polyreactivity |
| QVQLVESGGGLVQAGGSLRLSCAASGTFYYYAMGWYRQAPGKERELVAAISNGDSTTYADSVKGRFTISRDNAKNTVYFQMNSLKPEDTAVYYCAAYRYTPRTSRGYYYWGQGTQVTVSS | low polyreactivity |
| QVQLVESGGGLVQAGGSLRLSCAASGTIFAKYAMGWYRQAPGKERELVAAISRSSVRTRYADSVKGRFTISRDYAKNTVYLQMNSLKPEDTAVYYCNAYYRSYAYSHLDYWGQGTQVTVSS | high polyreactivity |
| QVQLVESGGGLVQAGGSLRLSCAASGTIFLYYAMGWYRQAPGKERELVAGINRVGSTNYADSVKGRFTISRDNAKNTVYLQMNSLKPEDTAVFYCNKAATRSRSRGYWGQGTQVNVSS | low polyreactivity |
| QVQLVESGGGLVQAGGSLRLSCAASGTIFQENAMGWYRQAPGKERELVAAITGSGDSTYYADSVKGRFTISRDNAKNTVYLQMNSLKPEDTAVYYCAASWHTPTVYDEYYYWGQGTQVTVSS | low polyreactivity |
| QVQLVESGGGLVQAGGSLRLSCAASGTIFRWYAMGWYRQARGKEREFVAAITSSGGSTYYADSVKGRFTISRDNAKNTVYLQMNSLKPEDTAVYYCAARGWTANYEMDHWGQGTQVTVSS | high polyreactivity |
| QVQLVESGGGLVQAGGSLRLSCAASGTIFVAYDMGWYRQAPGKERELVAAINFDGTSTYYADSVKGRFTISRDNAKNTVYLQMNSLKPEDTAVYYCNKRVSPTYKGQYDYWGQGTQVTVSS | low polyreactivity |
| QVQLVESGGGLVQAGGSLRLSCAASGTLSSYAMGWYRQAPGKERELVAAISLSGGSTYADSVKGRFTISRDNAKKSVYLQMNSLKPEDTAVYYCAKDWDVEITWSFSIYNYWGQGTHVTVSS | low polyreactivity |
| QVQLVESGGGLVQAGGSLRLSCAASGTNVKGWYRQAPGKERELVAAISGSGGSTYYADSVKGRFTISRDNAKNTVYLQMNSLKPEDTAVYYCAADSIQYTARPYDYWGQVTQVTVSS | low polyreactivity |
| QVQLVESGGGLVQAGGSLRLSCAASGTSGYYAMGWNRQAPGKERELVAGISIGGSTNYADSVKGRFTISRDNAKNTVYLQMNSLKTEDTAVYYCAVDGYVAFSPDRNNYWGQVTQVTVSS | low polyreactivity |
| QVQLVESGGGLVQAGGSLRLSCAASGTTFPLYAMGWYRQAPGKERELVAAITSVGSTYYADSVKGRFTISRDNAKNTVYLQMNSLKPEDTAVYDCAAANYTYASRWYDYWGQGTQVTVSS | low polyreactivity |
| QVQLVESGGGLVQAGGSLRLSCAASGTTFRANAMGWYRQAPAKERELVAAITSGGSTNYADSVKGRFTISRDNAKNTVYLQMNSLKPEDTAVYYCAKETYYGTDNFGQVGGEMDYWGQGNQVTVSS | low polyreactivity |
| QVQLVESGGGLVQAGGSLRLSCAASGTTFRFYAMGLYRQAPGKERELDAAINGSGGSTYYADSVKGRFTISRDNAKNTVYFQMISMKPEDTAVYYCAADGVPDALDRDYWGQGTQVNVSS | low polyreactivity |
| QVQLVESGGGLVQAGGSLRLSCAASGTTFTAYAMGWYREAPGKERELVAAINWSGGTTYYADSVKGRFTISRDNAKNTVYLQMTSLKPEDTAVYYCAVDGNFFVEVSPYDYWGQGTQVTVSS | low polyreactivity |

| Sequence | polyreactivity (PSR sort gate) |
| --- | --- |
| QVQLVESGGGLVQAGGSLRLSCAASGTTFYGYVMGWYRQAPGKQREWVAAISSSGGRTYYADSVKGRFTISRDNAKNTVYLQMNSLNPEDTAVYYCNTVQRYSTHYDYWGQGTQVTVSS | high polyreactivity |
| QVQLVESGGGLVQAGGSLRLSCAASGTTIQGYAMGWYRQAPGKERELVAAISGSGGTTYYADSVKGRFTISRDNAKNTVYLQMNSLKPEDTAVYYCAAYVFYNFGVYTRGYYYWGQGTQVTVSS | high polyreactivity |
| QVQLVESGGGLVQAGGSLRLSCAASGVIFYRNAMGWYRQAPGKERELVATIRYSGGSTYYADSVKGRFTISRDNAKNTVYLEMNSLKPEDSAVYYCNARRWYLPRRSGYGYWGQGTVVTVSS | high polyreactivity |
| QVQLVESGGGLVQAGGSLRLSCAASGVTFDAYVMGWYRQAPRKERELVAGIYSGGSTYYADSVKGRFTISRDNAKNTVYLQMNSLKPEDTAVYYCARENYRFAHEPPVSRQIPYDYWGQGTQVTVSS | low polyreactivity |
| QVQLVESGGGLVQAGGSLRLSCAASGVTFESYDMGWYRQAHGKERELVAAITWDGGSTYYADSVKGRFTISRDNAKNTVYLQMNSLKPEDTAVYYCAADFGTISIDVYSWMDYWGQGTQVTVSS | low polyreactivity |
| QVQLVESGGGLVQAGGSLRLSCAASGVTFQFYARGWYREAPGKERELVAAISRRGGRTDYADSVTGRFTISRDNAKNTAYLQMNSLKPEDTAVYYCARDPGAFEYWGQGTQVTVSS | high polyreactivity |
| QVQLVESGGGLVQAGGSLRLSCAASGVTFYHNAMGSYRQAPGKERELVAAISSSGDSTYYADSVKGRFTISRDNAKNTVYLHMNSLKPEDTAVYYCNDYFYYLSLYYYYWFNYDYWGQGTQVTVSS | low polyreactivity |
| QVQLVESGGGLVQAGGSLRLSCAASGYFDLNAMGWYRQAPGKERELVAAITDGGSTNYADSVKGRFTISRDNAKNTVYLQMNSLKPEDTAVYYCAADRGHTILHGGYWGQGTQVTVSS | low polyreactivity |
| QVQLVESGGGLVQAGGSLRLSCAASGYIFDAYAMGWYRQAPGKERELVAAIDIGGSTYYADSVKGRFTISRDNAKNTVYLQMNSLKPEDTAVYYCAEWFYFDQWDYAREYWGQGTQVTVSS | low polyreactivity |
| QVQLVESGGGLVQAGGSLRLSCAASGYIFDPNAMGWYRQAPGKERELVAAISGSGTSTYYADSVKGRFTISRDNAKNTVYLQMNSLKPEDTAVYYCAAAHDAGPVRYYYWGQGTQVTVSS | low polyreactivity |
| QVQLVESGGGLVQAGGSLRLSCAASGYIFDVNAMGWSRPAPGKESELVASISRSGASTYYADSVKGRFTISRDNAKNTVYLQMNSLQPEDTAVYYCNAVSRYCEYDSWGQGTQVTVSS | high polyreactivity |
| QVQLVESGGGLVQAGGSLRLSCAASGYIFDYYAMGWYRQAPWKERELVAAISSSGGTTYYADSVKGRFTISRDNAKNTVYLQMNSLKPEDTAVYYCAARKSRWQRGYYYWGQGTQVTVSS | high polyreactivity |
| QVQLVESGGGLVQAGGSLRLSCAASGYIFFGNAMGWYRQAPGKERELVAAIRWRGTSTYYADSVKGRFTISRDNAKNTVYLQMNSLKPEDTAVYYCAADVVRYNFYGTFLYDYDYWGQGTQVTVSS | low polyreactivity |
| QVQLVESGGGLVQAGGSLRLSCAASGYIFGSYVMGWYRQAPGKERELVAAITRIGASTYYADSVKGRFTISRDNAKNNVYLQMNSLKPEDTAVYYCATDQGGYYENDYWGQGNQVTVSS | low polyreactivity |
| QVQLVESGGGLVQAGGSLRLSCAASGYIFGVYAMGWYRQAPGKERELVAAISYGVGSTSYADSVKGRFTISRDNAKNTVYLQMNSLKPEDTAVYYCAADVFFYVYEAYLLYYWGQGTQVTVSS | low polyreactivity |
| QVQLVESGGGLVQAGGSLRLSCAASGYIFGVYVMGSYRQAPGKERELVAAITRGGGNTYYADSVKGRFTISRDNAKNSVYLQMNSLKPEDTAVYYCAARSLKSLSRYYYWGQGTQVTVSS | high polyreactivity |
| QVQLVESGGGLVQAGGSLRLSCAASGYIFGWNAMGWYRQAPGKERELVASIRWGGGSTYYADSVKGRFTISRDNAKNTVYLQMNSLKPEDTAVYYCAAKRRYYGPWSRIGYDYWGQGTQVTVSS | low polyreactivity |
| QVQLVESGGGLVQAGGSLRLSCAASGYIFGWYAMGWYRQAPGKERELLATIDWSGDSTYYADSVKGRFTISRDNAKNTVYLQMNSLKPEDTAVYYCAVGYVVDTWDEYDYWGQGTQVTVSS | low polyreactivity |
| QVQLVESGGGLVQAGGSLRLSCAASGYIFGYYAMGWYRQAPGKERELVAAISTDGSTDYADSVKGRFTISRDNAKKTVYLQMNSLKPEDTAVYYCAKELFIVTNGVYIYDSWGQGTQVTVSS | low polyreactivity |
| QVQLVESGGGLVQAGGSLRLSCAASGYIFGYYVMGWYRQAPGKERELVAAISDSDITYYADSVKGRFTISRDNAKNTVYLQMNSLKPEDTAVYYCNKDHSLYEHNYWGQGTLVTVSS | low polyreactivity |
| QVQLVESGGGLVQAGGSLRLSCAASGYIFGYYVMGWYRQAPGKERELVAAITGRGGSTYYADSVKGRFTISRDNAKNTVYLQMNSLKPEDTAVYYCAADATTYPYDPWHLYEIWEYYYWGQGTQVTVSS | low polyreactivity |
